Measurements published in paper doi:10.1101/2022.06.10.495428.

How the values were obtained:
[1] = molecular target: Influenza A/Zhejiang/DTID-ZJU01/2013 (H7N9) polymerase heterotrimer (influenza A/Zhejiang/DTID-ZJU01/2013 (H7N9)) (UniProt M9TI86); assay: SEC-MALS
[2] = molecular target: Influenza A/Zhejiang/DTID-ZJU01/2013 (H7N9) polymerase heterotrimer (influenza A/Zhejiang/DTID-ZJU01/2013 (H7N9)) (UniProt M9TI86); assay: cryo-EM structure

Influenza A/Zhejiang/DTID-ZJU01/2013 (H7N9) polymerase heterotrimer (from UniProt M9TI86;M9TLW3;X5F427) (complex)
stoichiometry N [1]: 2 | stoichiometry N [2]: 2
